Biological target: human µ opiate receptor (human)

(D-ala^2, N-methyl-phe^4, glyol^5) enkephalin (peptide)
adenyl cyclase activity (cAMP radioimmunoassay) in forskolin-stimulated COS cells: > 30%

From US6258556
